Where a chain is given by its changes, count along the chain named.
Columns and labels:
T CELLS = target: T1, T CELLS (human, UniProt P07766;P09693); experiment: flow cytometry titration on purified human T cells, PE anti-human secondary, x-fold over background
T1 construct: native, on the surface of purified human T cells; The sheets print only 'T CELLS'; also called human CD3 on purified human T cells; CD3 epsilon/gamma complex
Description: Cells (T cells or human SCLC cells) were stained with increasing concentrations of two-step purified DLL3/CD3 binding proteins with increasing concentrations in FACS buffer (PBS/0.5% BSA/0.05% sodium azide). Bound molecules were detected with PE-conjugated anti-human secondary antibody (Sigma-Aldrich, #P8047).

EGF1+2 = target: T2, EGF1+2; experiment: flow cytometry on HEK293 cells expressing the DLL3 subdomain construct, 1.6 nM binder, PE anti-human secondary, control: secondary antibody only
T2 construct: also called Hu DLL3 EGF1+2 on HEK293 cells
T2 membrane-anchored DLL3 subdomain construct: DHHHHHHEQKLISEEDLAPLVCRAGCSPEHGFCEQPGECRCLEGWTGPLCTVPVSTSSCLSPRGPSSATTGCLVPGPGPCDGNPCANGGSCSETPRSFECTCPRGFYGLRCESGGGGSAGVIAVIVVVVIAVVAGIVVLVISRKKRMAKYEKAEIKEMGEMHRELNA
Method in brief: (§1)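 Binders tested on HEK293 cells displaying the DLL3 subdomain construct; bound molecules detected by flow cytometry using PE-conjugated anti-human secondary antibody. Negative control: cells with secondary antibody only.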

Human CD3 E+G HuFc-6xHis = target: T3, Human CD3 E+G HuFc-6xHis (human); experiment: SPR (ProteOn XPR36), CD3εγ-Fc amine-coupled, bispecific as analyte, equilibrium fit, Example 4A
T3 construct: also called hu CD3εγ-Fc
T3 sequence (chain, as listed by the source limits assumed): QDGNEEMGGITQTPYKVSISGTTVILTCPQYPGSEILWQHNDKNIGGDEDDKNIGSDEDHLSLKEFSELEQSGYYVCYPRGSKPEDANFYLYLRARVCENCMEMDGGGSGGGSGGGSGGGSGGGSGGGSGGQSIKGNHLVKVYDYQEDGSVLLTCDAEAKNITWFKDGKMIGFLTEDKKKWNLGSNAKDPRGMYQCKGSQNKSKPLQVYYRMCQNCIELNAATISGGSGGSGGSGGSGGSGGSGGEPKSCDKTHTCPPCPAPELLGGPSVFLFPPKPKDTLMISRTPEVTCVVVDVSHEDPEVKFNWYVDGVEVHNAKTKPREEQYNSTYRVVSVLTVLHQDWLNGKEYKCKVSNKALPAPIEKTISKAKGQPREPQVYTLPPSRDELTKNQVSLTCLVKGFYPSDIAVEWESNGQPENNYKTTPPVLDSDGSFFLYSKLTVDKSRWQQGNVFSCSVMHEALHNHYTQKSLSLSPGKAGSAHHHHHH
Experimental: (§2) The binding affinity of purified DLL3/CD3 bispecific constructs for recombinant human and cyno DLL3-ECD and Fc-fusion proteins of human and cyno CD3 εγ subunits was determined by Surface Plasmon Resonance (SPR), using a ProteOn XPR36 instrument (Bio-Rad). The running buffer and all dilutions (except where stated) were done in PBS-T-EDTA. The GLM sensor chip (Bio-Rad) was normalized and pre-conditioned as per the manufacturer's recommendations. The sensor chip was activated with equal mixture of EDC/s-NHS in the horizontal direction for 300 sec at a flow rate of 30 ul/min and immobilized with protein A/G (20 ug/ml in 10 mM acetate pH 4.5) in the horizontal direction for 300 sec at a flowrate of 30 ul/min resulting in ˜5000 RU of protein A/G on the surface. The sensor chip was deactivated with 1M ethanolamine HCl in the horizontal direction for 300 sec at a flowrate of 30 μl/min.
For binding kinetic determination to CD3, hu CD3εγ-Fc and cy CD3εγ-Fc (dissolved in pH 4.5 acetate) was immobilized directly onto the sensor surface through amine coupling for 140 sec at a flowrate of 30 μl/min vertically. The baseline was stabilized by injecting PBS-T-EDTA for 60 sec at a flowrate of 40 μl/min horizontally. The analyte (the bispecific molecule) was injected horizontally over the captured CD3εγ-Fc construct for 600 sec at a flowrate of 40 μl/min and a dissociation for 600 sec.
(§3) The inter spot (interactions with sensor surface) and blank (PBS-T-EDTA) were subtracted from the raw data.

Cyno DLL3-His = target: T4, Cyno DLL3-His (cynomolgus monkey, UniProt Q9NYJ7 27-492 (human entry)); experiment: SPR (ProteOn XPR36), bispecific captured on protein A/G, DLL3 as analyte, Example 4A
T4 construct: also called cy DLL3; recombinant cyno DLL3-ECD
T4 chain: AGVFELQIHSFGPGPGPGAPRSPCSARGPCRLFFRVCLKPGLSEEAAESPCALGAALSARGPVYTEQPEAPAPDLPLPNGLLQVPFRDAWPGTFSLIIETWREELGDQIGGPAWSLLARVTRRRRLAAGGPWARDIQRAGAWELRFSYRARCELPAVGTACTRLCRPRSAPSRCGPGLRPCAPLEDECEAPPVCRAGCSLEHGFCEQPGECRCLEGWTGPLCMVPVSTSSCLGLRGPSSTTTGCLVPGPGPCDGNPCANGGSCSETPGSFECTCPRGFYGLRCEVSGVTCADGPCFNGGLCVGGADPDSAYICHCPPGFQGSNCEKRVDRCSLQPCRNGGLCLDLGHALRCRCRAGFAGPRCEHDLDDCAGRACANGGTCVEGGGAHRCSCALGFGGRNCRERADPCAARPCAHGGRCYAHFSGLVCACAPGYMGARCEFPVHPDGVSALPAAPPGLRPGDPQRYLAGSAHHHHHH
Experimental: as §2
For binding kinetic determination to DLL3, bispecific molecules were captured individually on the protein A/G surface vertically for 250 sec at a flowrate of 25 μl/min. The baseline was stabilized by injecting PBS-T-EDTA for 60 sec at a flowrate of 40 μl/min horizontally. The analyte (hu DLL3 or cy DLL3) was injected horizontally over the captured antibody for 600 sec at a flowrate of 40 μl/min and a dissociation for 2700 sec.
as §3

EGF3+4 = target: T5, EGF3+4; experiment: flow cytometry on HEK293 cells expressing the DLL3 subdomain construct, 1.6 nM binder, PE anti-human secondary, control: secondary antibody only
T5 construct: also called Hu DLL3 EGF3+4 on HEK293 cells
T5 membrane-anchored DLL3 subdomain construct: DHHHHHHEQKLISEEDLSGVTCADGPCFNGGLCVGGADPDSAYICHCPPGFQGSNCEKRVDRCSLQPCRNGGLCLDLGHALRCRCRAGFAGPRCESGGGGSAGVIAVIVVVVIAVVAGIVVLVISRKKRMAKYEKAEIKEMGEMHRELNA
Method in brief: as §1

EGF4+5 = target: T6, EGF4+5; experiment: as above
T6 construct: also called Hu DLL3 EGF4+5 on HEK293 cells
T6 membrane-anchored DLL3 subdomain construct: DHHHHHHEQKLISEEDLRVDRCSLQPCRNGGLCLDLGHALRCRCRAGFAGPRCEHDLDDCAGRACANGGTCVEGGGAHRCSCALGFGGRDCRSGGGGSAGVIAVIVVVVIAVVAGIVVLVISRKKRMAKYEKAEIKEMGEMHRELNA
Method in brief: as §1

T1 sequence (P07766 23-207, chain 1 of 2): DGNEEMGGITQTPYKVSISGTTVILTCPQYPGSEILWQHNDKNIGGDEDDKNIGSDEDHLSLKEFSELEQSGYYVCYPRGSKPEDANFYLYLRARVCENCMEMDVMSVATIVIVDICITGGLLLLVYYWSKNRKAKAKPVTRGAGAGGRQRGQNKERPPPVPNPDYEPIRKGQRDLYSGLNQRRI
T1 sequence (P09693 23-182, chain 2 of 2): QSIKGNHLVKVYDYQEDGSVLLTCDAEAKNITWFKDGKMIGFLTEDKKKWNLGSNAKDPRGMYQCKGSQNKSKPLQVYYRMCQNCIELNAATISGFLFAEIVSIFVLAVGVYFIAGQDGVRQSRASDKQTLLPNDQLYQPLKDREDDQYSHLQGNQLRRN

B1: DLL3#2/CD3#1 (bispecific antibody, human IgG1, kappa, lambda, L234A L235A)
chain 1: DIQMTQSPSAMSASVGDRVTITCRASQGISNYLAWFQQKPGKVPEPLIYAASSLQSGVPSRFSGSGSVTEFTLTISSLQPEDFATYYCLQHNSSPYTFGQGTKLEIKRTVAAPSVFIFPPSDEQLKSGTASVVCLLNNFYPREAKVQWKVDNALQSGNSQESVTEQDSKDSTYSLSSTLTLSKADYEKHKVYACEVTHQGLSSPVTKSFNRGECGGGGSEGKSSGSGSESKSTEGKSSGSGSESKSTGGGGSQVQLVQSGAEVKKPGASVKVSCKASGYTFTSYYMHWVRQAPGQGLEWMGIINPSGGSTSYAQKFQGRVTMTRDTSTSTVYMELSSLRSEDTAVYYCARGEAVGGNYYYYGMDVWGQGTTVTVSSASTKGPSVFPLAPSSKSTSGGTAALGCLVKDYFPEPVTVSWNSGALTSGVHTFPAVLQSSGLYSLSSVVTVPSSSLGTQTYICNVNHKPSNTKVDKRVEPKSCDKTHTCPPCPAPEAAGGPSVFLFPPKPKDTLMISRTPEVTCVVVDVSHEDPEVKFNWYVDGVEVHNAKTKPREEQYNSTYRVVSVLTVLHQDWLNGKEYKCKVSNKALPAPIEKTISKAKGQPREPQVYTLPPSREEMTKNQVSLWCLVKGFYPSDIAVEWESNGQPENNYKTTPPVLDSDGSFFLYSKLTVDKSRWQQGNVFSCSVMHEALHNHYTQKSLSLSPG
chain 2: EAVVTQEPSLTVSPGGTVTLTCRSSTGAVTTSNYANWVQEKPGQLPRGLIGGTNKRAPWVPARFSGSLLGGKAALTLSGAQPEDEAEYFCALWYSNLWVFGGGTKLTVLGQPKAAPSVTLFPPSSEELQANKATLVCLISDFYPGAVKVAWKADGSPVNTGVETTTPSKQSNNKYAASSYLSLTPEQWKSHRSYSCQVTHEGSTVEKTVAPAECSGGGGSEGKSSGSGSESKSTEGKSSGSGSESKSTGGGGSEVQLVESGGGLVQPGGSLKLSCAASGFTFNTYAMNWVRQAPGKGLEWVARIRSKYNNYATYYADSVKDRFTISRDDSKNTAYLQMNNLKTEDTAVYYCVRHGNFGNSYVSWFAYWGQGTLVTVSAASTKGPSVFPLAPSSKSTSGGTAALGCLVKDYFPEPVTVSWNSGALTSGVHTFPAVLQSSGLYSLSSVVTVPSSSLGTQTYICNVNHKPSNTKVDKRVEPKSCDKTHTCPPCPAPEAAGGPSVFLFPPKPKDTLMISRTPEVTCVVVDVSHEDPEVKFNWYVDGVEVHNAKTKPREEQYNSTYRVVSVLTVLHQDWLNGKEYKCKVSNKALPAPIEKTISKAKGQPREPQVYTLPPSREEMTKNQVSLSCAVKGFYPSDIAVEWESNGQPENNYKTTPPVLDSDGSFFLVSKLTVDKSRWQQGNVFSCSVMHEALHNRFTQKSLSLSPG
notes: Heterodimer of one DLL3 chain and one CD3 chain (scFab-Fc, knob-in-hole)
- EC50 (read off the curve) (T CELLS): ~10 nM

B2: DLL3#5/CD3#1 (bispecific antibody, human IgG1, kappa, lambda, L234A L235A)
chain 1: not shown
chain 2: B1 chain 2
notes: as for B1
- binding result (EGF1+2): binds

B3: DLL3#3/CD3#1 (bispecific antibody, human IgG1, kappa, lambda, L234A L235A)
chain 1: DIQMTQSPSAMSASVGDRVTITCRASQGISNYLVWFQQKPGKAPKRLIYAVSSLYSGVPSRFSGSGSGTEFTLTISSLQPEDFATYYCLQHDSYPYTFGQGTKLEIKRTVAAPSVFIFPPSDEQLKSGTASVVCLLNNFYPREAKVQWKVDNALQSGNSQESVTEQDSKDSTYSLSSTLTLSKADYEKHKVYACEVTHQGLSSPVTKSFNRGECGGGGSEGKSSGSGSESKSTEGKSSGSGSESKSTGGGGSQVQLVQSGAEVKKPGASVKVSCKASGYTFTSYYVHWVRQAPGQGLEWMVIINPGGGTTSYAQKFLGRVTMTRDTSTNTVYMELKSLRSEDTAVYYCARGEAVTGNYFYYGMDVWGQGTTVTVSSASTKGPSVFPLAPSSKSTSGGTAALGCLVKDYFPEPVTVSWNSGALTSGVHTFPAVLQSSGLYSLSSVVTVPSSSLGTQTYICNVNHKPSNTKVDKRVEPKSCDKTHTCPPCPAPEAAGGPSVFLFPPKPKDTLMISRTPEVTCVVVDVSHEDPEVKFNWYVDGVEVHNAKTKPREEQYNSTYRVVSVLTVLHQDWLNGKEYKCKVSNKALPAPIEKTISKAKGQPREPQVYTLPPSREEMTKNQVSLWCLVKGFYPSDIAVEWESNGQPENNYKTTPPVLDSDGSFFLYSKLTVDKSRWQQGNVFSCSVMHEALHNHYTQKSLSLSPG
chain 2: B1 chain 2
notes: as for B1
- Kd (Human CD3 E+G HuFc-6xHis): 7 nM
- Kd (Cyno DLL3-His): < 0.01 nM

B4: DLL3#4/CD3#1 (bispecific antibody, human IgG1, kappa, lambda, L234A L235A)
chain 1: not shown
chain 2: B1 chain 2
notes: as for B1
- binding result (EGF3+4): binds
- binding result (EGF4+5): binds

B5: DLL3#3/CD3#2 (bispecific antibody, human IgG1, kappa, lambda, L234A L235A)
chain 1: B3 chain 1
chain 2: B1 chain 2 with N309I
notes: as for B1
- Kd (Human CD3 E+G HuFc-6xHis): 90 nM
- Kd (Cyno DLL3-His): < 0.01 nM

— patent US20220251236A1 (Boehringer Ingelheim, published 2022)
